# Measured values published in patent US20180230233A1 (Genentech, published 2018).
# B1: huE104.v2 IgG4 (S228P) (antibody)
# heavy: not shown
# light: DIQMTQSPSSLSASVGDRVTITCQSIKSVYNNRLGWYQQKPGKAPKLLIYETSILTSGVPSRFSGSGSGTDFTLTISSLQPEDFATYYCAGGFDRSGDTTFGQGTKVEIKRTVAAPSVFIFPPSDEQLKSGTASVVCLLNNFYPREAKVQWKVDNALQSGNSQESVTEQDSKDSTYSLSSTLTLSKADYEKHKVYACEVTHQGLSSPVTKSFNRGEC
# notes: also called huE104.v2 Control
# How the values were obtained:
# [1] = molecular target: T1, human tryptase beta 3 (human, UniProt P20231 31-275); assay: SPR, protocol as for tryptase beta 1
# Protocol: In this experiment, all the humanized variants were expressed as IgG by transient transfection of 293 cells. IgG was purified with protein G affinity chromatography. The affinity of each variant for recombinant His-tagged human tryptase beta 1 monomer (SEQ ID NO: 128) was determined by SPR analysis using a BIAcore® T200. BIAcore® Series S CM5 sensor chips were immobilized with monoclonal mouse anti-human IgG (Fc) antibody (Human antibody capture kit from GE Healthcare) and anti-tryptase variants were subsequently captured on each flow cell. Serial 3-fold dilutions of the human tryptase beta 1 monomer were injected at a flow rate of 30 μl/min. Each sample was analyzed with 3 min association and 10 min dissociation. After each injection, the chip was regenerated using 3 M MgCl₂. Binding response was corrected by subtracting the response units (RU) from a flow cell capturing an irrelevant IgG at similar density. A 1:1 Languir model of simultaneous fitting of kₒₙ and koff was used for kinetics analysis.
# [2] = molecular target: T1, human tryptase beta 3; assay: cell-based or functional assay
# T1 sequence (P20231 other isoform, or with tags, fused parts or gaps limits assumed): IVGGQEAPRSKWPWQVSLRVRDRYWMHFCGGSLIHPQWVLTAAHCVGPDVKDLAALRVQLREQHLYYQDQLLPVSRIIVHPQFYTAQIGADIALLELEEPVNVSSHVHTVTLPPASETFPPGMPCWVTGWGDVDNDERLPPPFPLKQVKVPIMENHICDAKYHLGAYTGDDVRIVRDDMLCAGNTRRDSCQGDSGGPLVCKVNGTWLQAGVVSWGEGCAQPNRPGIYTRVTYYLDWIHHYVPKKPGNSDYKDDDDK
binder,measurement,setting,value
B1,Kd,[1],0.13 nM
same,"IC50 (nM), tryptase enzymatic assay",[2],2.8 nM
